Measured values published in patent publication US20180333469.
Entries after “also recorded” stand apart in the source; their conditions may differ.

B1: fVIIa/TF enzyme complex (protein)
chain 1: ANAFLEELRPGSLERECKEEQCSFEEAREIFKDAERTKLFWISYSDGDQCASSPCQNGGSCKDQLQSYICFCLPAFEGRNCETHKDDQLICVNENGGCEQYCSDHTGTKRSCRCHEGYSLLADGVSCTPTVEYPCGKIPILEKRNASKPQGRIVGGKVCPKGECPWQVLLLVNGAQLCGGTLINTIWVVSAAHCFDKIKNWRNLIAVLGEHDLSEHDGDEQSRRVAQVIIPSTYVPGTTNHDIALLRLHQPVVLTDHVVPLCLPERTFSERTLAFVRFSLVSGWGQLLDRGATALELMVLNVPRLMTQDCLQQSRKVGDSPNITEYMFCAGYSDGSKDSCKGDSGGPHATHYRGTWYLTGIVSWGQGCATVGHFGVYTRVSQYIEWLQKLMRSEPRPGVLLRAPFP
chain 2: SGTTNTVAAYNLTWKSTNFKTILEWEPKPVNQVYTVQISTKSGDWKSKCFYTTDTECDLTDEIVKDVKQTYLARVFSYPAGNVESTGSAGEPLYENSPEFTPYLETNLGQPTIQSFEQVGTKVNVTVEDERTLVRRNNTFLSLRDVFGKDLIYTLYYWKSSSSGKKTAKTNTNEFLIDVDKGENYCFSVQAVIPSRTVNRKSTDSPVECMGQEKGEFREIFYIIGAVVFVVIILVIILAISLHKCRKAGVGQSWKENSPLNVS
B2: wild-type factor Xa (fXa) (protein)
chain 1: ANSFLEEMKKGHLERECMEETCSYEEAREVFEDSDKTNEFWNKYKDGDQCETSPCQNQGKCKDGLGEYTCTCLEGFEGKNCELFTRKLCSLDNGDCDQFCHEEQNSVVCSCARGYTLADNGKACIPTGPYPCGKQTLER
chain 2: IVGGQECKDGECPWQALLINEENEGFCGGTILSEFYILTAAHCLYQAKRFKVRVGDRNTEQEEGGEAVHEVEVVIKHNRFTKETYDFDIAVLRLKTPITFRMNVAPACLPERDWAESTLMTQKTGIVSGFGRTHEKGRQSTRLKMLEVPYVDRNSCKLSSSFIITQNMFCAGYDTKQEDACQGDSGGPHVTRFKDTYFVTGIVSWGEGCARKGKYGIYTKVTAFLKWIDRSMKTRGLPKAKSHAPEVITSSPLK

Target: tissue factor pathway inhibitor (TFPI), P10646
Sequence (P10646 whole entry, looked up): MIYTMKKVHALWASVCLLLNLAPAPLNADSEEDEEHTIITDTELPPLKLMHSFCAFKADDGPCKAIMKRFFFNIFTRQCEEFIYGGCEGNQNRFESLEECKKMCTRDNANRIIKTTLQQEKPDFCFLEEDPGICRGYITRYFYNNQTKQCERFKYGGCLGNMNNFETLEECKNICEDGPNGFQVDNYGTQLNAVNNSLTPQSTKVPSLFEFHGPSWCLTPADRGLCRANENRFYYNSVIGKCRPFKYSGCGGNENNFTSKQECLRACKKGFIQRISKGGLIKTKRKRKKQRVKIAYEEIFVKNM

| Protein | fXa formation from fX (170 nM) by fVIIa/TF, measured by Spectrozyme-Xa cleavage | fXa chromogenic activity (cleavage of Spectrozyme-fXa, 100 µM) after 2 hour incubation |
| --- | --- | --- |
| B1 | fXa combined with TFPI (included at the physiological concentration of 2.4 nM) and rapidly inhibited fVIIa/TF activity |  |
| B2 |  | For fXa at both 0.5 nM and 1 nM, a 2 nM concentration of TFPI was enough to almost completely inhibit the activity of fXa; also recorded: Such inhibition was also significant when TFPI's concentration was at 1 nM |
